In article PMC2895232:
Blank lines part the entries; values can stand above or below the substance they belong to.

What was measured:
[1] = biological target: wild-type ParB of Pseudomonas aeruginosa (Pseudomonas aeruginosa); assay: cross-linking; glutaraldehyde cross-linking in vitro of purified His6-tagged ParB proteins to determine the oligomeric state; WT ParB as the control
[2] = tested on: ParB1-229 (Pseudomonas aeruginosa PAO1161); assay: EMSA; settings: not given in the material
[3] = biological target: ParBΔ121–183 of Pseudomonas aeruginosa (Pseudomonas aeruginosa); assay: cross-linking; glutaraldehyde cross-linking in vitro of purified His6-tagged ParB proteins to determine the oligomeric state; WT ParB as the control

- stoichiometry N [1]: 2
Substance: wild-type ParB of Pseudomonas aeruginosa (natural protein)

Substance: parS
- binding signal (fold of WT affinity (>5-fold decreased)) [2]: < 0.2

Substance: ParBΔ121–183 of Pseudomonas aeruginosa (natural protein)
- stoichiometry N [3]: 2
